Entries after “also recorded” stand apart in the source; their conditions may differ.
Experiments:
[1] = molecular target: FXI (Homo sapiens, UniProt P03951); settings: cited from earlier work
[2] = test system: neutrophil elastase activity; experiment: Laser-induced vessel wall injury: neutrophil elastase activity; assay type: in vivo, mice (C57BL/6JRj); settings: iv bolus 20.5 mg/kg + infusion 3.7 mg/kg/h
Procedure: Ir-CPI was administered intravenously as a bolus (20.5 mg/kg) immediately followed by a continuous infusion at a rate of 3.7 mg/kg/h (see Table 1 below). Due to fast distribution and elimination of Ir-CPI in the mice (t1/2α=14 min and t1/2β=236 min), the combination of the bolus and the infusion was chosen in order to maintain a constant Ir-CPI concentration into the blood.
Vessel wall injury was induced with a Micropoint Laser System (Photonics Instruments) focused through the microscope objective, parfocal with the focal plane and aimed at the vessel wall, as previously described (Dubois et al., 2006). Typically, 1 or 2 pulses were required to induce vessel wall injury.
Multiple thrombi were studied in a single mouse, with new thrombi formed upstream of earlier thrombi to avoid any contribution from thrombi generated earlier in the animal under study. Laser-beam injuries were done at various time after the start of test-item administration (+5 min up to about 150 min after bolus administration of Ir-CPI or NaCl (control)).
Image analysis was performed using Slidebook 4.1 (Intelligent Imaging Innovations). Fluorescence data were captured digitally at up to 50 frames per second and analyzed as previously described (Falati et al., 2002). The kinetics of thrombus formation were analyzed by determining median fluorescence values over time in a minimum number of 20 thrombi. […]

[3] = molecular target: kallikrein (Homo sapiens, UniProt P03952); settings: cited from earlier work
Sequence of kallikrein (P03952 20-390 limits assumed): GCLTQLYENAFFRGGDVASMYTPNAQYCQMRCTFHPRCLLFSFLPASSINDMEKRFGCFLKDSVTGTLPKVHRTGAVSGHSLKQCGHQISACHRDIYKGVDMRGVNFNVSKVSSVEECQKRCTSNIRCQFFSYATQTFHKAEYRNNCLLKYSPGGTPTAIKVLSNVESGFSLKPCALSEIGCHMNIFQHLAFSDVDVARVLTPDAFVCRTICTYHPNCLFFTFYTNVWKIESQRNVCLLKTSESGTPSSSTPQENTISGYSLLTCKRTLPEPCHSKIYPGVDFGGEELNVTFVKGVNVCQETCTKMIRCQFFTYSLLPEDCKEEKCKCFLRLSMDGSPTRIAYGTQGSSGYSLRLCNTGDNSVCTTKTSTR
Sequence of kallikrein (P03952 391-638 limits assumed): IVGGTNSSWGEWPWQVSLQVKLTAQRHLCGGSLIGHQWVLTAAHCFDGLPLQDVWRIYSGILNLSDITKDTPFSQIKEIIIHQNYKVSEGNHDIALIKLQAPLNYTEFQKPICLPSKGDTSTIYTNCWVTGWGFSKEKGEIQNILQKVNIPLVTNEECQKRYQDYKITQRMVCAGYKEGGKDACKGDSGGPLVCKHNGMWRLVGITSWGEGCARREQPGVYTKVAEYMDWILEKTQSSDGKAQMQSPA

[4] = Quantification of Ir-CPI in plasma samples by ELISA; assay type: in vivo, mice (C57BL/6JRj); settings: iv bolus 20.5 mg/kg + infusion 3.7 mg/kg/h; after about 150 min of procedure; Mean±SEM, n=5
Procedure: Plasma (around 250 μL) was centrifuged at 18-22° C./at 2500 g during 15 min. Plasma was centrifuged again (18-22° C. at 2500 g during 15 min) and was stored into a polypropylene tube at −80° C. Plasma samples were later sent frozen on dry ice for dosage of the circulating concentration of Ir-CPI by ELISA.
The quantification of circulating Ir-CPI in the plasma samples was assessed by ELISA at Eurofins, ADME Bioanalyses (Vergèze, France). A sandwich immuno-assay was carried out using two anti-Ir-CPI antibodies. The capture monoclonal antibody (Ir-CPI3) was coated to microtitration plates (Nunc, ThermoFischer Scientific, USA) at 1 μg/mL overnight at 4° C. in PBS (Hyclone, USA). Wells were blocked with PBS BSA 2% (Sigma-Aldrich, USA) at room temperature (RT) for 1 h and were then washed. Samples were added into the wells and incubated for 2 h at RT. The biotinylated detection antibody (L39-biotin), previously diluted in PBS BSA 1% (Sigma-Aldrich, USA), was added to the wells and complemented with streptavidin-HRP (REF) diluted in PBS BSA 1%. TMB SureBlue (KPL, REF) and H2SO4 IN (VWR, USA) were used for spectrophotometric detection (450 nm).

[5] = test system: thrombin generation induced by ellagic acid (intrinsic pathway activator); settings: cited from earlier work
[6] = Tail bleeding time assessment; assay type: in vivo, mice (C57BL/6JRj)
Procedure: Tail bleeding time assessment under NaCl or Ir-CPI treatment (Low or High dose) was performed as previously described (Mezouar et al., 2015) on anesthetized wild-type (i.e. cancer-free) or cancer-bearing mice. Briefly, a 1- to 3-mm portion of the distal tail was removed from mice; the tail was immersed in isotonic saline (37° C.), and the time to complete cessation of blood flow recorded. The bleeding time was monitored for a maximum of 10 min.

[7] = test system: human neutrophils; experiment: Phagocytosis assay with pHrodo E. coli bioparticles; assay type: cell-based; settings: for neutrophil phagocytic activity: 3 donors
Procedure: The effect of Ir-CPI on the phagocytic activity of human neutrophils was assessed. For this purpose, freshly isolated neutrophils from 3 donors were pre-treated for 1 h with recombinant Ir-CPI at 2 different concentrations (5.0 or 15.3 μg/mL) and then incubated in the presence of pH-rodo® E. coli bioparticles (Sartorius). To evaluate the phagocytic activity, fluorescence was monitored every 15 min for up to 48 hours.
Neutrophils were directly isolated from whole blood by using the EasySep™ Direct Human Neutrophil Isolation Kit (StemCell) and according to the manufacturer's protocol. The purification is a negative selection (elimination of unwanted cell populations) to obtain intact neutrophils.
pHrodo® Green E. coli Bioparticles were resuspended at 1 mg/mL in PBS, vortexed and sonicated according to the manufacturer's protocol and then stored at 4° C. overnight. Then, 25.000 freshly isolated neutrophils, resuspended in RPMI 1640 medium containing 10% of FBS and supplements (2 mM Glutamine, 1% NEAA, 1 mM Sodium pyruvate, 50 μM B-mercaptoethanol and 50 μg/ml Gentamycin), were seeded per well in a 96 well-plate and preincubated for 1 h at 37° C., 5% CO2 with Ir-CPI at two different concentrations (2 μM and 0.65 μM). Then, pHrodo® Green E. coli Bioparticles were added at 10 μg/well and the plate was incubated in the Incucyte® Live-Cell Analysis System. Pictures were taken every 15 minutes for 48 hours. Two negative controls were performed: (1) only the neutrophils were seeded in absence of Ir-CPI and without particles, and (2) neutrophils were seeded in absence of Ir-CPI and incubated with the particles. All conditions were performed in triplicates.
To analyse neutrophil phagocytosis, the Green total area (μm2/image) was measured in each well every 15 minutes for 48 hours (2 pictures/well). Briefly, the IncuCyte® Basic Analysis software allows for the quantification of fluorescent object metrics in real-time. […]

[8] = molecular target: prekallikrein (PK) (Homo sapiens, UniProt P03952); settings: cited from earlier work
Sequence of prekallikrein (PK) (P03952 20-638): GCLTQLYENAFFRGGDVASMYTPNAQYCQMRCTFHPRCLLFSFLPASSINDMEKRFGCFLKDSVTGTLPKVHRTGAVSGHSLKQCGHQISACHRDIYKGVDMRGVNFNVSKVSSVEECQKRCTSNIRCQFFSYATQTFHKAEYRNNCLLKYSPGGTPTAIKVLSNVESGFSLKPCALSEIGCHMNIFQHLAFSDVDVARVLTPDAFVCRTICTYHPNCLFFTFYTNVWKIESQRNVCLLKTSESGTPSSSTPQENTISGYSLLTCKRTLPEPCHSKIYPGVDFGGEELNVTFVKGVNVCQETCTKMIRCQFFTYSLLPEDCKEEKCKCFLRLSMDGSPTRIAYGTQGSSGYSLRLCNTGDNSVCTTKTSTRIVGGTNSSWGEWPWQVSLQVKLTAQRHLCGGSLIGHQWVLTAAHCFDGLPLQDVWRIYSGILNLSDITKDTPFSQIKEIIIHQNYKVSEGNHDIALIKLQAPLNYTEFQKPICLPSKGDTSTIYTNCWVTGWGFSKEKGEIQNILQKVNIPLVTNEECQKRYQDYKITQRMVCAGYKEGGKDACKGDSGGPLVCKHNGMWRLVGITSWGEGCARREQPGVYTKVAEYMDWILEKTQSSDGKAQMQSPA

B1: Ir-CPI: Ixodes ricinus salivary gland polypeptide, contact phase inhibitor, MW=7660 Da; sequence SEQ ID NO: 1 or SEQ ID NO: 2 (protein)
chain: ANHKGRGRPAKCKLPPDDGPCRARIPSYYFDRKTKTCKEFMYGGCEGNENNFENITTCQEECRAKKV
binding to FXI zymogen [1]: but not to their zymogen forms; also recorded: unable to bind
signal corresponding to neutrophil elastase activity compared to control mice [2]: drastically reduced
binding to kallikrein [3]: binds
Mean plasma concentration [4]: 6.48 ± 1.02 µg/mL
thrombin generation [5]: strong dose-dependent reduction
tail bleeding time compared to NaCl-treated mice ([6]; High dose (20.5 mg/kg + 3.7 mg/kg/h), cancer-bearing mice): No significant effect
tail bleeding time compared to NaCl-treated mice ([6]; High dose (20.5 mg/kg + 3.7 mg/kg/h), cancer-free mice): No significant effect
tail bleeding time compared to NaCl-treated mice ([6]; Low dose (10.3 mg/kg + 1.9 mg/kg/h), cancer-bearing mice): No significant effect
tail bleeding time compared to NaCl-treated mice ([6]; Low dose (10.3 mg/kg + 1.9 mg/kg/h), cancer-free mice): No significant effect
neutrophil phagocytic activity ([7]; recombinant Ir-CPI 5.0 μg/mL (0.65 μM)): no evidence for an effect
neutrophil phagocytic activity ([7]; recombinant Ir-CPI 15.3 μg/mL (2 μM)): marginal (p-value just below threshold for significance) evidence for an increase
decrease of the phagocytic activity of human neutrophils ([7]; whatever the concentration): did not induce a decrease
binding to prekallikrein (PK) [8]: unable to bind
